{"source": "the nanobody polyreactivity screen of Harvey et al. (2022)", "data": [{"assay": "yeast display, Sf9 membrane polyspecificity reagent, FACS + sequencing; frameworks hold sequencing errors", "how_it_was_run": "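After 36–48 hours of galactose induction, yeast (Saccharomyces cerevisiae BJ5465) displaying a synthetic nanobody library were stained at 4 °C for 1 hour with 10% biotinylated, detergent-solubilized Sf9 membrane reagent. Streptavidin microbeads enriched the stained cells before FACS sorting into low and high (top ~1%) gates on anti-HA and streptavidin fluorescence. Each clone's polyreactivity label reflects its gate of origin.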", "values": [{"sequence": "QVQHVESGRGFVKAGCSLRLSCASSGSIFVKNAMGRYRQAPGKERELVARITYSGGSTYYADSVKGRFTISRDNAKNTVYLQMNSVKPEDNAGYYCARTRKIAGYYYWGQGTQVTESS", "polyreactivity (PSR sort gate)": "high polyreactivity"}, {"sequence": "QVQLVESAGGLVQAGGSLRLSCAASGRIFLYNAMGWYRQAPGKERELVAVISSNGGRTYYADSVKGRFTISRDNAKNTVYLQMNSLKPEDTAVYYCAAVQHYVTHMDYWGQGTQVTVSS", "polyreactivity (PSR sort gate)": "low polyreactivity"}, {"sequence": "QVQLVESGGGLVQAGGSLRLSCAASGSIFRHNAMGWYRQAPGKERELVAAISRRASSTYYADSVKGRFTISRDNAKNTVYVQMNSLKPEDTAVYYCAVVPSSTYHAYDYWGQGTQVTVSS", "polyreactivity (PSR sort gate)": "high polyreactivity"}, {"sequence": "QVQLVESGGGLVQAGGSLRLSCAASGISFNGNAMGWYRQAPGKERELVAAISGSGGSTYYADSVKGRFTISRDNAKNSVYLQMNSLKQEDTAVYYCNALYGRRVYVGYDYWGQGSQVTVSS", "polyreactivity (PSR sort gate)": "high polyreactivity"}, {"sequence": "QVQLVESGGGLVQAGGSLRLSCAASGYTFARYAMGWYRQATGKERELVAANTSGDRTNYADSVKGRFTISRDNAKNTVYLQMNSLKPEDTAVYYCNATLYSYDASDYWGQGTQVTVSS", "polyreactivity (PSR sort gate)": "low polyreactivity"}, {"sequence": "QVQLVESGGGLVQAGGSLRLSCAASGSTFTNNGMGWYRQAPGKERELVATISWDGDSTYYADSVKGRFTISRDNAKNTVYLQMISQKPEDTAVYYCAADEWGSDSALNFEYWGQGTQVTVSS", "polyreactivity (PSR sort gate)": "low polyreactivity"}, {"sequence": "QVQLVESGGGLVQAGGSLRLSCAASGRTFGRNDMGWYRQAPGKERELLATITSGGSTNYADSVKGRFTISRDNAKNTVYLQMISLKPEDTAVYYCAAEFSPSRWAYSEGALRYNYWGQGTQVTVSS", "polyreactivity (PSR sort gate)": "low polyreactivity"}, {"sequence": "QVQIVESGGGLVQAGVSLRLSCAPSGFIFSVYAMGWYRQAPGKEMELVAGITRNGGITYYADSVKWRFTISRDNAKNTVYLQMNSLKPEDSAVYYCAAQAPKRRPFYGYYWGQGTQVTVSS", "polyreactivity (PSR sort gate)": "high polyreactivity"}, {"sequence": "QVQLVESGGGLVQAGGSLRLSCAASGSTFARYTMGWYRQAPGKERELVATITNRGGSTYYADSVKGRFTISRDNAKNTVYLQMNSLKPEVTAVYYCNKRYYWGGYDYWGQGTQVTVSS", "polyreactivity (PSR sort gate)": "high polyreactivity"}, {"sequence": "QVQRVESGGGFVQAGGSLRLSSAASGFTFGAYAMGWYRQAPGKEMELVASISWSGGSTYYADSVKGRFTISRVNAKNTVYLQMNSLKPEDTAVYYCNKDFVYPDDDGLFDYWGQGTQVTVSS", "polyreactivity (PSR sort gate)": "low polyreactivity"}, {"sequence": "QVQLVESGGGLVQAGGSLRLSCGASGGFFYFNAMGRYRQAPGKEREVVASITWSGGNTYYADSVKGRFTISRDNAKHTVDLQMNSLTPEDTAVYYCAADTLEYRPTYDYWGQGTQVTVSS", "polyreactivity (PSR sort gate)": "low polyreactivity"}, {"sequence": "QVQLVESGGGLVQAGGSLRLSCAASGNIFVAYAMGWYRQAPGKERELVAAITSGGRTYADSVKGRFTISSDNAKNTVYLQMNSLKPEDTAVYYCNADPYYVYLGYYDRYYSGYGYWGLGTQVTVSS", "polyreactivity (PSR sort gate)": "low polyreactivity"}, {"sequence": "QVHLVESGGGLVQAGGSLRLSSAASGRTLSRYAMGWYRQAPGKERELGASISWSGGRTYYADSVKGRFTISRDNAKNTVYLQMNSLKPEDTAVYYCAAVYVTAPFDYWGQGTQVTVSS", "polyreactivity (PSR sort gate)": "low polyreactivity"}, {"sequence": "QVHLVESGGGLVQAGGSLRLSCAASGRTFASNPMGWYRQAPGKERELVAAISARGGSTYYADSVKGRFTISRDNAKNTVYLQMNSLKPEDTAVYYCAAYLGYPYGRDYWGQGTQVTVSS", "polyreactivity (PSR sort gate)": "high polyreactivity"}, {"sequence": "QVQLVESGGGLVQAGGSLRVSCAASGFIFGDYAMGWYRQAPGKERELVAAINRGASTYYADSVKGRFTISRDNAKNTVYLQMNSLKPEDTAVYYCAAAGYSRGGRGGYWGQGTHVTVSS", "polyreactivity (PSR sort gate)": "high polyreactivity"}, {"sequence": "QVQLVESGGGLVQAGGSLRLSCAASGYTFSQNAMGWYRQAPGKERELVAAITWSGAGTYYADSVKGRFTISRDNAKNTVYLQMNSLKPEDTAVYYCAAREWTSQDRQHNYWGQGTQVTVSS", "polyreactivity (PSR sort gate)": "low polyreactivity"}, {"sequence": "QVQLVESGGGLVQAGGSLRLSCAASGRIFFGNTMGWSRQAPGKERELVAVIDRSGGTTYYADSVKGRFTSSRDNAKNTVYLQMNSLKPEDTAVYYCAAIRRQKGLWDYYYWGQGTQVTVST", "polyreactivity (PSR sort gate)": "low polyreactivity"}, {"sequence": "QVHLVESGGGLVQAGGSLRLSCAASGFTFDQNAMGWYRQAPGKERELVAAISIGGSTYYADSVKGRFTISRDNAKNTVYLQMNSLKPEDTAVYYCATRNIYFSSVDYWGQGTQVTVSS", "polyreactivity (PSR sort gate)": "high polyreactivity"}, {"sequence": "QVQLVESGGGLVQAGGSLRLSCAASGFTFNYYAMGWYRQAPGKERELVAAISRSGGSTSYADSVKGRFTISRDNAKNTVYLQMNSLKPEDTAVYYCNAVRAIYRYDYWGQGTQVTVSS", "polyreactivity (PSR sort gate)": "high polyreactivity"}, {"sequence": "QVQLVESGGGLVQAGGSLRLSCAASGFTFTGYAMGWYRQAPGKERELVAVISETGGSTYADSVKGRFTISRDNAKNTVYLQMNSLKPEDTAVYYCNARSGYYLRYYDYDYWGQGTQVTVSS", "polyreactivity (PSR sort gate)": "low polyreactivity"}, {"sequence": "QVQLVESGGGLVQAGGSLRLSCAASGRIFWQNAMGWYRQAPGKERELVAAISSRGGTTYYADSVKGRFTISRDNAKNTVYLQMNSLKPEDTAVYYCNAALLLRYRGFFTVAAYDYWGLGTQVTVSS", "polyreactivity (PSR sort gate)": "low polyreactivity"}, {"sequence": "QDQLVESGGGLVQAGGSLRLSCAASGSNFAVYAMGWSRQAPGKERELVAAISYRGARTYYADSVKGRFTISRDNAKNTVYLQMNSLKPEDTAVYYCAAQGVTSPGVDSWGQGTQVTVSS", "polyreactivity (PSR sort gate)": "high polyreactivity"}, {"sequence": "QVQLVESGGGLVQAGGSLRLSCAASGRIIGRYAMGWYRPAPGKERELVAAISSSGSTYYADSVKGRFTISRDNAKNTVYLQMNSLKPEDTAVYYSAAYYRGRAYISYGYWGQGTQVTVSS", "polyreactivity (PSR sort gate)": "high polyreactivity"}, {"sequence": "QVQLVESGGGLVQAGGSLRLSCAASGFIFSWYAMGWYRQAPGKERELVAAISKRGGSTYYADSVKGRFTISRDNAKNTVYLQMNSLKPEDTAVYYCAADRLPSGSLVEYWGQGTQVTVSS", "polyreactivity (PSR sort gate)": "high polyreactivity"}, {"sequence": "QVQLEESGGGLVQAGGSLRLSSAASGFTFAFYAMGWYRQAPGKERELVAAISRRGGSTTYADSVKGRFTISRDNAKNTVYLQMNSLKPEDTAVYYCNAVSTRNPGPDYYYWGQGTQVNVSS", "polyreactivity (PSR sort gate)": "high polyreactivity"}, {"sequence": "QVQLVESGGGLVQAGGSLRLSCADTGLILVLNAMGCYRQAPGKERELVADITSGGSTYYADSVKGRFTISRDNAKNSVYLQMNSLKPEDTAVYYCATDQGGYYENDYWGQGTKVTVSS", "polyreactivity (PSR sort gate)": "low polyreactivity"}, {"sequence": "QVQLVESGGGLVQAGGSLRLSCAASGFTFYDYAMGLYRQAPGKERELVAGISRDGGTTYYSDSVKGRFTISRDNAKNTVYLQMNSLKPEDTAVYYCAVDFLDWYQDYYITYDYWGQGSQVTVSS", "polyreactivity (PSR sort gate)": "low polyreactivity"}, {"sequence": "QVQLVESGGGLFQAGGSLRISCAATGSTFGSYAMGWYRQAPGKERELVAAISVGGGSTYYADSVKGRFTISRDNAKNTVYLKMNSLKPEDTAVFYCAATAPRWHHFYHWGQGTQVTVSS", "polyreactivity (PSR sort gate)": "high polyreactivity"}, {"sequence": "QVQLVESGGGLVQAGGSLRLSCAASGRIFDGYAMGWYRQAPGKERELVAAISSRGGRTYYADSVKGRFTISRDNAKNTVYLQMNSLKPEDTAVYYCAGDDPYGEGDYWGQGTQVTVSS", "polyreactivity (PSR sort gate)": "low polyreactivity"}, {"sequence": "QLQLVESGGGLVQAGGSLRLSCAASGFIDAYTMGWYRQAPGKERELVAAITWSGGRTYYADSVKGRFTISRDNAKNTVYIQRNSLKPEDNAVYYCAKDVTPYSPDEDYWGQGSQVTVSS", "polyreactivity (PSR sort gate)": "low polyreactivity"}, {"sequence": "QVQLVESGGVLVQAGGSLPLSCAASGSTFRPNAMGWYRQAPGKERELVDGISLNGTTTYYADSVKGRFTISRDNEKNTVYIQMNSLKPVDTAVYYCSADYQFGSAAEPYVFFDPEMDYWGQGTQVTGSS", "polyreactivity (PSR sort gate)": "low polyreactivity"}, {"sequence": "QVQLAESGGGLVQAGGSLRLSCAASGSTFPRNPMGWYRQAPGKERELVATITSSGGGTYYADSVKGRFTISRDNAKITVYLQMNSLKPEDTAVYYCNADGPAGDAFDYWGQGTQVTVSS", "polyreactivity (PSR sort gate)": "low polyreactivity"}]}]}
